Bridge positions count the residues as written; N and C are the ends.
T1: COX1(h) (human), P23219
T1 chain: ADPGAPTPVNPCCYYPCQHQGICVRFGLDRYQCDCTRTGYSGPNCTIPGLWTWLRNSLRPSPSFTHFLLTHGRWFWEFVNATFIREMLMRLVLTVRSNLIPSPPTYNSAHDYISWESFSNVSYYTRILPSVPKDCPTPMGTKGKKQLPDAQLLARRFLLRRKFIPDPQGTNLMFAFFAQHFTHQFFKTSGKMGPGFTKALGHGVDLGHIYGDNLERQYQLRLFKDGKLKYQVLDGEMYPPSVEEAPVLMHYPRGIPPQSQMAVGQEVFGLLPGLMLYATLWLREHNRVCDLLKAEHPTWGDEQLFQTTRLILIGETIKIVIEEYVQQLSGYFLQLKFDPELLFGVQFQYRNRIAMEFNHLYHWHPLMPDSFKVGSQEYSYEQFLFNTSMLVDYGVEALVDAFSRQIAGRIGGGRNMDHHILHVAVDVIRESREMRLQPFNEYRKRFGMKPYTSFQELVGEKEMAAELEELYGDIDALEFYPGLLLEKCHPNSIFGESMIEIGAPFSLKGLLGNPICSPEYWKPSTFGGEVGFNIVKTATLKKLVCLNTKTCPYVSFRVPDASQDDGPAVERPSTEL

T2: Ubiquitin carboxy-terminal hydrolase L3, P15374
T2 chain: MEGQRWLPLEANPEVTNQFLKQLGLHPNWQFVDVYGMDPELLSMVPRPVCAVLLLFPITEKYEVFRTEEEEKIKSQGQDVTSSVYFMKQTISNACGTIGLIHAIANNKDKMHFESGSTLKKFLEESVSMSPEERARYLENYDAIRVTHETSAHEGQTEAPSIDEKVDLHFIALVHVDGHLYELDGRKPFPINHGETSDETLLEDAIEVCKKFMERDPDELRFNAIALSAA

T3: PDE4D2 (h) (human), Q08499
T3 chain: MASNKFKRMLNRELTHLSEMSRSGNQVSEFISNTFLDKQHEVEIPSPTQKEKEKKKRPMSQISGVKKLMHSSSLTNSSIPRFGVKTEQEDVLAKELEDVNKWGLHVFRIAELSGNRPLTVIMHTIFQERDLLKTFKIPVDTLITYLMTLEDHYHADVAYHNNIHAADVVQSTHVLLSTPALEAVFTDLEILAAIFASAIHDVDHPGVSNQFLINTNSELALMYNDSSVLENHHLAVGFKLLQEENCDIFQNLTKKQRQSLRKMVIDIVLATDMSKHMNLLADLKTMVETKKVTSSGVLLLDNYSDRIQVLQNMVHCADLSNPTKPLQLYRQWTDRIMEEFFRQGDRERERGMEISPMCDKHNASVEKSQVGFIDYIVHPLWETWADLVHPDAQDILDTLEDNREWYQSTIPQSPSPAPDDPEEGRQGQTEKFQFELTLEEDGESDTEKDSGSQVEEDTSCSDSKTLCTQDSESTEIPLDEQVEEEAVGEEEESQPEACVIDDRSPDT

T4: Deubiquitinase OTUD6B, Q8N6M0
T4 chain: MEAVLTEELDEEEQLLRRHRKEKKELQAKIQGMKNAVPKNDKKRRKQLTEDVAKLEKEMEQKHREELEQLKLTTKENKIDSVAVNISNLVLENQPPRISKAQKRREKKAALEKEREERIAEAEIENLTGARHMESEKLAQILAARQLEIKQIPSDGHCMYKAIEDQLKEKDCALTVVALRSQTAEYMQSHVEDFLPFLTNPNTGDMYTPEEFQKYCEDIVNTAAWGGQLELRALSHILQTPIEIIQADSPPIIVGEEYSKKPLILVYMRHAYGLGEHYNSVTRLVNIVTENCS

T5: Caspase-3, P42574
T5 chain: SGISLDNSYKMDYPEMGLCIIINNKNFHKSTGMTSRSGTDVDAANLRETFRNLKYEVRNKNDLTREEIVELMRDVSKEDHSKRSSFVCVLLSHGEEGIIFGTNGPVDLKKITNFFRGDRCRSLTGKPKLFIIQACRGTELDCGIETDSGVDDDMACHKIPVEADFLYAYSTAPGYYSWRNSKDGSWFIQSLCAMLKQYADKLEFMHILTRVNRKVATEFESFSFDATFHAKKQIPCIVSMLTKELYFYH


Tests used:
Test in all cases: cell-based or functional assay
Cathepsin V, O60911 = biological target: Cathepsin V, O60911
Ataxin3, P54252 = biological target: Ataxin3, P54252
COX1(h) (human), P23219 = biological target: T1, COX1(h) (human), P23219
Cathepsin L, P07711 = biological target: Cathepsin L, P07711
DPP7, Q9UHL4 = biological target: DPP7, Q9UHL4
[1] = biological target: T2, Ubiquitin carboxy-terminal hydrolase …
[2] = biological target: T3, PDE4D2 (h) (human), Q08499
[3] = biological target: T4, Deubiquitinase OTUD6B, Q8N6M0
Caspase-3, P42574 = biological target: T5, Caspase-3, P42574

Sequence of Cathepsin L, P07711 (P07711 114-333 limits assumed): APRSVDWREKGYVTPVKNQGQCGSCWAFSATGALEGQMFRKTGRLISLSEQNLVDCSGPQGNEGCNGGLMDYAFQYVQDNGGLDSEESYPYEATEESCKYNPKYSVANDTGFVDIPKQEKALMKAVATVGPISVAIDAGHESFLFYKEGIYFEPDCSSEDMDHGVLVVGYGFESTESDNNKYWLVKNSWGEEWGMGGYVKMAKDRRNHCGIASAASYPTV
Sequence of Cathepsin V, O60911 (O60911 114-334 limits assumed): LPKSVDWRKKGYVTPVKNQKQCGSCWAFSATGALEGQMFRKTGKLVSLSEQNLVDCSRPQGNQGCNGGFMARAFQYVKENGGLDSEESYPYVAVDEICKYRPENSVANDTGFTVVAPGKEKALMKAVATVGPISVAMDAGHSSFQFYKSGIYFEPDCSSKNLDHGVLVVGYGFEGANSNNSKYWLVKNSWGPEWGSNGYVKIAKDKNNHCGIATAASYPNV
Sequence of Ataxin3, P54252 (P54252 whole entry): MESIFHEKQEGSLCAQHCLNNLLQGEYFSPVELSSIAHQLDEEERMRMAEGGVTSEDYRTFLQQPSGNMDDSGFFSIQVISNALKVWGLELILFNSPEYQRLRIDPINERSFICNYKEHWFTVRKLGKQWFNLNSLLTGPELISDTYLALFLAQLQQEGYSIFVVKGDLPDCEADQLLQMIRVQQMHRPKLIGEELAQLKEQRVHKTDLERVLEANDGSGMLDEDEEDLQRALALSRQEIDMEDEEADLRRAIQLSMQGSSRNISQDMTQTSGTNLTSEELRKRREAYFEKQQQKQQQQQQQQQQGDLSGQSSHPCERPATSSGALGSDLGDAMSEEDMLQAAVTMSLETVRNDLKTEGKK

Binder	Percentage inhibition (%) at 1 µM (Cathepsin V, O60911)	Percentage inhibition (%) at 10 µM (Cathepsin V, O60911)	Percentage inhibition (%) at 1 µM (Ataxin3, P54252)	Percentage inhibition (%) at 10 µM (Ataxin3, P54252)	% inhibition of control enzyme activity, compound at 10 µM (COX1(h) (human), P23219)	Percentage inhibition (%) at 1 µM (Cathepsin L, P07711)	Percentage inhibition (%) at 10 µM (Cathepsin L, P07711)	Percentage inhibition (%) at 1 µM (DPP7, Q9UHL4)	Percentage inhibition (%) at 10 µM (DPP7, Q9UHL4)	Percentage inhibition (%) at 1 µM [1]	Percentage inhibition (%) at 10 µM [1]	% inhibition of control enzyme activity, compound at 10 µM [2]	Percentage inhibition (%) at 1 µM [3]	Percentage inhibition (%) at 10 µM [3]	Percentage inhibition (%) at 1 µM (Caspase-3, P42574)	Percentage inhibition (%) at 10 µM (Caspase-3, P42574)
Hex-CPPTQFCD-NH2 (bridge 1-7; not fully specified (bridges); printed as Hex-[Cys(tMeBn(DOTA-PP))-Pro-Pro-Thr-Gln-Phe-Cys]-Asp-NH2) [Hex-[Cys(tMeBn(DOTA-PP))-Pro-Pro-Thr-Gln-Phe-Cys]-Asp-NH2]	1%	-18%	1%	10%	10%	3%	6%	2%	-3%	-1%	14%	-5%	2%	15%	1%	-2%
Hex-CPPTQFC-OH (bridge 1-7; not fully specified (bridges); printed as Hex-[Cys(tMeBn(DOTA-AET))-Pro-Pro-Thr-Gln-Phe-Cys]-OH) [Hex-[Cys(tMeBn(DOTA-AET))-Pro-Pro-Thr-Gln-Phe-Cys]-OH]	-1%	-1%	2%	-1%	8%	0%	-6%	-1%	-7%	0%	0%	-4%	0%	0%	-2%	-1%
